Numbering of substitutions follows the chain as printed.
B1: KM281-1-10抗体 (antibody, V domains shown)
VH: QVQLQESGPGLVKPSETLSLTCTVSGGSISGYYWSWIRQPPGKGLEWIGYIYYSGSTNYNPSLKSRVTISVDTSKNQFSLKLNSVTAADTAVYYCARAPLHGDYKWFHPWGQGTLVTVSS
VL: not shown
notes: Human antagonistic anti-CD40 antibody, FERM BP-7579; Signal peptides predicted by Signal P
B2: KM643-4-11抗体 (antibody, V domains shown)
VH: QVQLQQSGPGLVKPSQTLSFTCAISGDSVSSNSAAWNWIRQSPSRGLEWLGRTYYRSKWYKDYAVSVKSRITINPDTSKNQFSLQLNSVTPEDTAVYYCARGYYYGSGSYPYYYQMDVWGQGTTVTVSS
VL: EIVLTQSPATLSLSPGESATLSCRASQSVSSYLAWYQQKPGQAPRLLIYDASNRATGIPARFSGSGSGTDFTLTISSLEPEDFAVYYCQQRSNTFGGGTKVEIK
notes: Human agonistic anti-CD40 antibody from hybridoma; Signal peptides predicted by Signal P
B3: F2-103抗体 (antibody, V domains shown)
VH: EVQLVESGGGLVQPGGSLRLSCAVSGFTFSTYWMHWVRQAPGKGLVWVSRINSDGSSTTYADSVKGRFTISRDNAKNTLYLQMNSLRAEDTAVYYCARDRVLWIGELSYYGMDVWGQGTTVTVSS
VL: DIQMTQSPSTLSASVGDRVTITCRASQSISNWLAWYQQKPGKAPKLLLYKASGLESGVPSRFSGSGSGTEFTLTINSLQPDDFATYYCQQSNSYSWTFGHGTKVEIK
notes: Human agonistic anti-CD40 antibody from hybridoma; plasmids ATCC PTA-3302 and PTA-3303; Signal peptides predicted by Signal P
B4: 110抗体 (antibody, V domains shown)
VH: QVQLVESGGGVVQPGRSLRLSCAASGFTFSSYGMHWVRQAPGKGLEWVAVIWYDGSIKYYADSVKGRFTISRDNSKNTLYLQMNSLRAEDTAVYYCAREGYNILTGYFGYWGQGTLVTVSS
VL: VIWMTQSPSLLSASTGDRVTISCRMSQGISSDLAWYQQKPGKAPELLISAASTLQSGVPSRFSGSGSGTDFTLTISCLQSEDFATYYCQQYYSFPWTFGQGTKVEIK
notes: as for B2
B5: 115抗体 (antibody, V domains shown)
VH: B4 VH with Y53N
VL: B4 VL
notes: as for B2
B6: 2105抗体 (antibody, V domains shown)
VH: EVQLVESGGGLVQPGRSLRLSCAASGFTFDDYAMHWVRQAPGKGLEWVSGISWNSGSLVHADSVKGRFTISRDNAKNSLYLQMNSLRAEDTALYYCARDRLFRGVRYYGMDVWGQGTTVTVSS
VL: EIVLTQSPATLSLSPGERATLSCRASQSVSSYLAWYQQKPGQAPRLLIYDASNRATGIPARFSGSGSGTDFTLTISSLEPEDFAVYYCQQRSHWLTFGGGTKVEIK
notes: Human agonistic anti-CD40 antibody, FERM BP-8024
B7: F5-77抗体 (antibody, V domains shown)
VH: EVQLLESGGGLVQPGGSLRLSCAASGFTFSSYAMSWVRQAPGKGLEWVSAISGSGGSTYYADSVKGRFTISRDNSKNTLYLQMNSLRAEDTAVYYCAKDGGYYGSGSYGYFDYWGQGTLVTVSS
VL: DIQMTQSPSSVSGSVGDRVTITCRASQGISSWLAWYQQKPGKAPKLLIYAGSSLQSGVPSRFSGSGFGTDFTLTISSLQPEDFATYYCQQASSFPRTFGQGTKVEIK
notes: Human agonistic anti-CD40 antibody from hybridoma; plasmids ATCC PTA-3304 and PTA-3305; Signal peptides predicted by Signal P
B8: 4D11抗体 (antibody, V domains shown)
VH: QLQLQESGPGLLKPSETLSLTCTVSGGSISSPGYYGGWIRQPPGKGLEWIGSIYKSGSTYHNPSLKSRVTISVDTSKNQFSLKLSSVTAADTAVYYCTRPVVRYFGWFDPWGQGTLVTVSS
VL: AIQLTQSPSSLSASVGDRVTITCRASQGISSALAWYQQKPGKAPKLLIYDASNLESGVPSRFSGSGSGTDFTLTISSLQPEDFATYYCQQFNSYPTFGQGTKVEIK
notes: Human antagonistic anti-CD40 antibody, FERM BP-7758; Signal peptides predicted by Signal P

The binders below were run against T1, ヒトCD40 (human CD40 expressed on cells) (human, UniProt P25942 21-277) (assay: screening by ELISA (human CD40 mouse FC) and FACS (Ramos cells)).
T1 construct: whole, on cells; also called Ramos細胞上のCD40; DC上のCD40
T1 sequence (P25942 21-277): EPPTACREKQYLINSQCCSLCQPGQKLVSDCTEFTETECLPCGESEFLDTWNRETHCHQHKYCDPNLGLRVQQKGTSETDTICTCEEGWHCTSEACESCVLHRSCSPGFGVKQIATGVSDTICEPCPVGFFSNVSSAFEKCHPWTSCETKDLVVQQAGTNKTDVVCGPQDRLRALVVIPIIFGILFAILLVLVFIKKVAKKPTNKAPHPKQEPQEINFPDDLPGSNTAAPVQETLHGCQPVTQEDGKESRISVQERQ

Binding result, binds:
B1
B2
B3
B4
B5
B6
B7
B8
